Experimental data reported in article PMC2553580 (Nucleic Acids Research, 2008).

Target: the molecule itself
Assay: native gel or EMSA

B1: long isoform of Sox5 (natural protein)
chain: not shown
stoichiometry N: 2
